In publication PMC8121781, “Molecular basis for the disruption of Keap1–Nrf2 interaction via Hinge & Latch mechanism” (Communications Biology, 2021):
Square brackets hold non-standard residues; d marks the D form. Ends that are not written are not given here. pS = N[C@@H](COP(=O)(O)O)C(=O)O

Target: T1, full-length mouse wild-type Keap1-6xHis (Kelch-like ECH-associated protein 1) (mouse, UniProt Q9Z2X8 1-624)
T1 construct: Keap1, mouse, full-length protein Met1-Cys624; also called full-length Keap1; Keap1 homodimer; not shown: 6xHis, C-terminal, kept
Assay: NMR titration; competition: preformed complex of 0.05 mM 13C/15N-Neh2 and 0.1 mM Keap1 (1:2) titrated with p62-KIR peptide (phosphorylated 0.25-5 mM, non-phosphorylated 1.0 and 5 mM); 20 mM Tris-HCl pH 8.0, 100 mM NaCl, 4 mM TCEP; read-out is recovery of Neh2 signals
Conditions: both partners purified

T1 sequence (Q9Z2X8 whole entry): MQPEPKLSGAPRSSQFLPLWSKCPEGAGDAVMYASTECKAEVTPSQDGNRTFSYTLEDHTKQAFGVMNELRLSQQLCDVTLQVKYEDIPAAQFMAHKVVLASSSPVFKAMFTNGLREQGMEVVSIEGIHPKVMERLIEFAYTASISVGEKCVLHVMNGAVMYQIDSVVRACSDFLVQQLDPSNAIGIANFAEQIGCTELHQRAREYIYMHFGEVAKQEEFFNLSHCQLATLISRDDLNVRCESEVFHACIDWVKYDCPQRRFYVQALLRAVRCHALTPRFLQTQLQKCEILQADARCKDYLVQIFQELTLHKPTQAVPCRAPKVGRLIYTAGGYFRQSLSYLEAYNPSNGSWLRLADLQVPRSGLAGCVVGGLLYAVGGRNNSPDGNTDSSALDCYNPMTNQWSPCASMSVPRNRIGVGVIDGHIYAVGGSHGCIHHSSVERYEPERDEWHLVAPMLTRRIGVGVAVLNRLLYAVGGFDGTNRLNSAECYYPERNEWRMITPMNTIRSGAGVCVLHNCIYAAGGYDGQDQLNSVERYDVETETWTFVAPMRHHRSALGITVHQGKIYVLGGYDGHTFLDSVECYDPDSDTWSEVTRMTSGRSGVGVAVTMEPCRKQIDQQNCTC

binding result: binds
B1: phosphorylated p62-KIR peptide (peptide)
peptide: KEVDP[pS]TGELQSLQ
notes: also called P-p62-KIR; p62-pKIR peptide; source: bought: Toray Research Center
